Measurements published in the RNAGym collection of RNA variant scans (doi:10.7554/elife.80360).

B1: HDV Ribozyme (parent)
chain: GGCCGGCAUGGUCCCAGCCUCCUCGCUGGCGCCGGCUGGGCAACAUUCCGAGGGGACCGUCCCCUCGGUAAUGGCGAAUGGGACCCA

Variants of: B1
Test: self-cleavage, relative activity (ratio to wild type); higher = more cleavage; co-transcriptional
With C32U C84A the self-cleavage was 0.753.
C33G G55U showed a self-cleavage of 0.204.
Work on G34C A71G yielded a self-cleavage of 0.
G34C A71C gave a self-cleavage of 0.201.
C32U U79G gave a self-cleavage of 0.504.
Variant C33U G39A has a self-cleavage of 0.182.
In the case of C33A C85A, the self-cleavage is reported as 0.18.
Variant G34A G38A has a self-cleavage of 0.0583.
For G34C C58A, the self-cleavage was 0.161.
In the case of G35A C86A, the self-cleavage is reported as 0.643.
For C33A U46G, the self-cleavage was 0.0615.
C33U C49G showed a self-cleavage of 0.855.
C32U C49A gave a self-cleavage of 0.683.
In the case of C33U A56U, the self-cleavage is reported as 0.758.
In the case of C33A C41U, the self-cleavage is reported as 0.163.
In the case of G34C G35C, the self-cleavage is reported as 0.246.
For C33G C48G, the self-cleavage was 0.227.
Variant C33G C66A has a self-cleavage of 0.198.
G34A G80A gave a self-cleavage of 0.0241.
Work on C33A G82U yielded a self-cleavage of 0.0332.
With C33A G82A the self-cleavage was 0.102.
Variant C32G U79G has a self-cleavage of 0.172.
In the case of C32G U79A, the self-cleavage is reported as 0.19.
Variant C33A U37A has a self-cleavage of 0.151.
C33A C86U gave a self-cleavage of 0.244.
For C33A C86G, the self-cleavage was 0.277.
With C33G A43G the self-cleavage was 0.
In the case of C33G A43C, the self-cleavage is reported as 0.0723.
Work on C33G G38U yielded a self-cleavage of 0.246.
C33U C48A showed a self-cleavage of 0.631.
For C32U G38U, the self-cleavage was 0.205.
C33U G81U gave a self-cleavage of 0.177.
For C33U G74C, the self-cleavage was 0.0339.
With C33U G74U the self-cleavage was 0.41.
With G34C U37C the self-cleavage was 0.156.
With G34C U37G the self-cleavage was 0.
C32U G80U showed a self-cleavage of 0.145.
With G35A C48A the self-cleavage was 0.659.
Variant G35A A87U has a self-cleavage of 0.391.
C32U G35C showed a self-cleavage of 0.0573.
With G34A C48G the self-cleavage was 0.119.
Variant G34C A78G has a self-cleavage of 0.0755.
With G34C A78C the self-cleavage was 0.0898.
Work on C33A A87U yielded a self-cleavage of 0.226.
In the case of C33A U72G, the self-cleavage is reported as 0.122.
Variant C33G G50A has a self-cleavage of 0.148.
For C33G G50C, the self-cleavage was 0.246.
Variant G34C C57G has a self-cleavage of 0.0978.
Work on G34A C63A yielded a self-cleavage of 0.231.
C32U G67A gave a self-cleavage of 0.857.
Work on C32U C58U yielded a self-cleavage of 0.831.
In the case of G35A C57G, the self-cleavage is reported as 0.684.
Variant G35A G55C has a self-cleavage of 0.358.
With G34A C86A the self-cleavage was 0.0683.
G35A C62G gave a self-cleavage of 0.448.
For G35A C62U, the self-cleavage was 0.665.
With G35A G59C the self-cleavage was 0.61.
For G35A G59A, the self-cleavage was 0.494.
For G35A G59U, the self-cleavage was 0.646.
C32U G81C showed a self-cleavage of 0.248.
With G34A A56G the self-cleavage was 0.104.
For G34A A56U, the self-cleavage was 0.256.
C32U C66U gave a self-cleavage of 0.926.
G34A A70U gave a self-cleavage of 0.132.
With C33U C41G the self-cleavage was 0.372.
G34C G82C showed a self-cleavage of 0.117.
Variant G34U C66G has a self-cleavage of 0.164.
In the case of G34U C66A, the self-cleavage is reported as 0.0712.
Variant G34A C66A has a self-cleavage of 0.286.
With G34A C66U the self-cleavage was 0.0665.
Variant G34U G54C has a self-cleavage of 0.0468.
In the case of G34U G54A, the self-cleavage is reported as 0.041.
With G34A U47G the self-cleavage was 0.0791.
Variant G34C C41G has a self-cleavage of 0.107.
For G34A U60C, the self-cleavage was 0.258.
C33A A42U showed a self-cleavage of 0.0314.
For G34U C64U, the self-cleavage was 0.246.
C33G G52U gave a self-cleavage of 0.119.
Variant C33G A70G has a self-cleavage of 0.104.
For G35A U69A, the self-cleavage was 0.571.
Variant G34A C41G has a self-cleavage of 0.141.
C33U G76A showed a self-cleavage of 0.978.
C32U U69C gave a self-cleavage of 1.19.
Variant G35C A42G has a self-cleavage of 0.192.
For G35C A42C, the self-cleavage was 0.107.
C33U C64G gave a self-cleavage of 0.736.
For C32U A56G, the self-cleavage was 0.872.
C32U U60A gave a self-cleavage of 0.782.
C33A C58G showed a self-cleavage of 0.332.
For G34C U60A, the self-cleavage was 0.306.
C33U C63U gave a self-cleavage of 0.845.
With G34C G53A the self-cleavage was 0.229.
Work on G35A G54C yielded a self-cleavage of 0.69.
C33G G54C showed a self-cleavage of 0.143.
Variant G34C U79C has a self-cleavage of 0.227.
G34A G59C gave a self-cleavage of 0.225.
Work on G34A G59U yielded a self-cleavage of 0.266.
Work on G34A G59A yielded a self-cleavage of 0.214.
G34A C36A gave a self-cleavage of 0.0978.
With G35A U65G the self-cleavage was 0.554.
With C33G U47G the self-cleavage was 0.0723.
In the case of G34A C57U, the self-cleavage is reported as 0.332.
With C33A G81U the self-cleavage was 0.0978.
For G34A C58U, the self-cleavage was 0.122.
For G34A C58G, the self-cleavage was 0.177.
Work on G34A U72A yielded a self-cleavage of 0.17.
G34C G76A gave a self-cleavage of 0.163.
Work on G35A A43C yielded a self-cleavage of 0.0272.
With C32U G73A the self-cleavage was 0.364.
For C33U G40U, the self-cleavage was 0.78.
Work on C33U C75G yielded a self-cleavage of 0.222.
Variant C33U C75U has a self-cleavage of 0.0817.
C32U C48A showed a self-cleavage of 1.04.
C32U C48G showed a self-cleavage of 1.04.
For G34U C57G, the self-cleavage was 0.178.
C33G U79C showed a self-cleavage of 0.0875.
C33G U79A showed a self-cleavage of 0.0755.
C33A A78C showed a self-cleavage of 0.0997.
With G34A A51C the self-cleavage was 0.193.
Variant C32U G53A has a self-cleavage of 1.01.
G35A U60G showed a self-cleavage of 0.554.
For C32U A71U, the self-cleavage was 0.565.
C32U A71G gave a self-cleavage of 0.903.
C32U C44G showed a self-cleavage of 0.374.
C33G C64U gave a self-cleavage of 0.306.
Variant C33A G34C has a self-cleavage of 0.108.
For G34U A42G, the self-cleavage was 0.0449.
For G35A C41G, the self-cleavage was 0.222.
For G35A C41U, the self-cleavage was 0.524.
For C33G G67U, the self-cleavage was 0.111.
With G35A C75A the self-cleavage was 0.151.
G35A C75U showed a self-cleavage of 0.133.
Variant G34C C84U has a self-cleavage of 0.217.
In the case of G34C G54U, the self-cleavage is reported as 0.123.
In the case of G34U C36G, the self-cleavage is reported as 0.0302.
In the case of G34A G81A, the self-cleavage is reported as 0.128.
C33G A51U showed a self-cleavage of 0.0811.
In the case of C33G A51C, the self-cleavage is reported as 0.246.
For G34A G53A, the self-cleavage was 0.174.
C33G U72A showed a self-cleavage of 0.
Variant C33G U72G has a self-cleavage of 0.
C32U C75G gave a self-cleavage of 0.17.
Variant G35A U47A has a self-cleavage of 0.466.
With G34U G35U the self-cleavage was 0.175.
Work on G35A G53A yielded a self-cleavage of 0.411.
Work on C33A G35A yielded a self-cleavage of 0.151.
Work on G34A C62G yielded a self-cleavage of 0.13.
C33U A87C gave a self-cleavage of 0.745.
For C33A C57G, the self-cleavage was 0.332.
Work on G34U U79G yielded a self-cleavage of 0.0978.
In the case of G35C C48A, the self-cleavage is reported as 0.269.
Variant G34C A56C has a self-cleavage of 0.237.
Work on G34C A56G yielded a self-cleavage of 0.142.
Work on C32G U65A yielded a self-cleavage of 0.0545.
G34C U46G showed a self-cleavage of 0.0504.
For C33A A43G, the self-cleavage was 0.
With C33U G54A the self-cleavage was 1.05.
Work on C33U G54C yielded a self-cleavage of 0.623.
For C33U G54U, the self-cleavage was 0.901.
Work on C33A C75A yielded a self-cleavage of 0.122.
C33A C75U showed a self-cleavage of 0.0563.
For G34U A78U, the self-cleavage was 0.121.
C32U C85U gave a self-cleavage of 0.725.
G34U G81C showed a self-cleavage of 0.144.
Work on G35A A45C yielded a self-cleavage of 0.0378.
Work on G35A G74U yielded a self-cleavage of 0.231.
G34C C44U gave a self-cleavage of 0.0739.
